Test results: US6946265 (Xencor, dated 2005)

T1: full-length human growth hormone receptor (hGHR) (human, UniProt P10912 19-638)
T1 sequence (looked up): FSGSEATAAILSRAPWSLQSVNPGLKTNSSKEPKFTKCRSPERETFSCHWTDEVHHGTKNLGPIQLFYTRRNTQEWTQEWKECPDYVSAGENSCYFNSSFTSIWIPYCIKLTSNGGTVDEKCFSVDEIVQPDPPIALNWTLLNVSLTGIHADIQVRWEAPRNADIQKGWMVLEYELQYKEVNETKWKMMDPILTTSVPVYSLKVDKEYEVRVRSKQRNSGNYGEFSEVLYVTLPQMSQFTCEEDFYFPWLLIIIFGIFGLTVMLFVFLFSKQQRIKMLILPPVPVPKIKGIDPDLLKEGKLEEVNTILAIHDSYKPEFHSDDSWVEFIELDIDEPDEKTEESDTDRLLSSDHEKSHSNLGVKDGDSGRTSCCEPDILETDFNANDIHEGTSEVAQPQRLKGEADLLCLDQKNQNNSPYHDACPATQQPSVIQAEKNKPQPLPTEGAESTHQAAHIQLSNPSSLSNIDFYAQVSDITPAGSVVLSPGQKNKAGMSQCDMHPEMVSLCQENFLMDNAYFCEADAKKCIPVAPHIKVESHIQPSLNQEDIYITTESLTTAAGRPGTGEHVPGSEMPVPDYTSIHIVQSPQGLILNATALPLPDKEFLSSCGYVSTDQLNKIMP


Target: T1, full-length human growth hormone …
Experiment: cell-based or functional assay

Row | Binder | ED50, cell proliferation (MTT assay) of FDC-P1 cells transfected with hGHR
1 | GHA protein mutant b (A13V, T27V, S79A, V90I, G161M, S184A) (ligand) FPTIPLSRLFDNVMLRAHRLHQLAFDVYQEFEEAYIPKEQKYSFLQNPQTSLCFSESIPTPSNREETQQKSNLELLRIALLLIQSWLEPIQFLRSVFANSLVYGASDSNVYDLLKDLEEGIQTLMGRLEDGSPRTGQIFKQTYSKFDTNSHNDDALLKNYMLLYCFRKDMDKVETFLRIVQCRAVEGSCGF | 320
2 | GHA protein mutant d (A13V, T27V, S55A, S79A, S85A, V90I, G161M, S184A) (ligand) FPTIPLSRLFDNVMLRAHRLHQLAFDVYQEFEEAYIPKEQKYSFLQNPQTSLCFAESIPTPSNREETQQKSNLELLRIALLLIQAWLEPIQFLRSVFANSLVYGASDSNVYDLLKDLEEGIQTLMGRLEDGSPRTGQIFKQTYSKFDTNSHNDDALLKNYMLLYCFRKDMDKVETFLRIVQCRAVEGSCGF | 260
3 | GHA protein mutant f (A13V, T27V, Y28F, F54Y, S55A, S79A, S85A, V90I, G161M, S184A) (ligand) FPTIPLSRLFDNVMLRAHRLHQLAFDVFQEFEEAYIPKEQKYSFLQNPQTSLCYAESIPTPSNREETQQKSNLELLRIALLLIQAWLEPIQFLRSVFANSLVYGASDSNVYDLLKDLEEGIQTLMGRLEDGSPRTGQIFKQTYSKFDTNSHNDDALLKNYMLLYCFRKDMDKVETFLRIVQCRAVEGSCGF | 230
